Data reported in patent US20150119254.

Assays:
IFN-gamma = molecular target: T1, IFN-gamma (UniProt P01579); assay: SPR; conditions: Ds at n; for binding signal: 150 nM IFN-gamma, 930 s
T1 sequence: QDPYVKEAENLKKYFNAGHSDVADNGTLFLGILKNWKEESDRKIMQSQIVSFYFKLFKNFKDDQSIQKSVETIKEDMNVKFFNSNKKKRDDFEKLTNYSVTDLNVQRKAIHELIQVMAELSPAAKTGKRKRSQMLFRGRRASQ

[1] = system: T2, VEGF-165 (Homo sapiens), P15692-4; assay: SPR; conditions: for binding signal: 10 nM VEGF-165, 930 s
T2 sequence: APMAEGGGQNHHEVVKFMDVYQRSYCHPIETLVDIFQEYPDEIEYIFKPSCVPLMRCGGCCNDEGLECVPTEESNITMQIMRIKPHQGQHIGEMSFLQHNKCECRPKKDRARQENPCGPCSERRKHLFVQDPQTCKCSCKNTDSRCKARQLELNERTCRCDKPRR

[2] = Ds at n, PBS + 0.005% NP-40, 25 C

Which Kd (IFN-gamma; 205 mM NaCl, 25 C) does the source give for “TCCACTCGGGTCATTTANTAATGTAGGTNTGGGCTAGGCNGCTAGTGGA [IFd1-3Ds-49]” here?
Its Kd is 1.6 nM.

With “ATCAGTCCACATTGGACTTAGCCCAGCAAGACAATCTACGNTATGCCAGAAGTTGG [IF02Ds-57]” as the sequence, how does the binding signal (IFN-gamma) read?
The binding signal was 0.03 bound ratio.

“TGACCTCGGGTCATTTANTAATGTAGGTNTGGGCTAGGCNGCTAGGTCA [IFd1-3Ds-49b]” was tested. Which Kd (IFN-gamma; 205 mM NaCl, 25 C) did it give?
The Kd was 1.1 nM.

Which binding signal ([1]; Ds at n) does the source give for “ATCAGTCCACATACGCGGGGGTGTTGAAGGGTTAGTCGGANGTAGTGTGTACAGAG [VG02bDs-57]” here?
Its binding signal is 0.39 bound ratio.

“ATCAGTCCACTCGGGTCGTTTANTAATGTAGGTNTGGGCTAGGCNGCTAGTGGATG [IF07bDs-57 (Table 14)]” was tested. Which Kd (IFN-gamma; 205 mM NaCl phosphate pH 7.4, 25 C) did it give?
Its Kd is 0.8 nM.

“TCGGGTCATTTANTAATGTAGGTNTGGGCTAGGCAGCTAGTGGAT [IFd1-DsDsA-45]” was tested. Which Kd (IFN-gamma; Bound 0.36) did it give?
The Kd was over 200 nM.

“TCGGGTCATTTAATAATGTAGGTATGGGCTAGGCNGCTAGTGGAT [IFd1-AADs-45]” was tested. Which Kd (IFN-gamma; 205 mM NaCl, 25 C) did it give?
Its Kd is 113 nM.

For “ATCAGTCCACAAAGTGCTGGGTCCGNATGGCGGGGGGTTAGGCCTCTTTGGGGCGG [VG01Ds-57]”, which binding signal ([1]; Ds at n) is on record?
Its binding signal is 0.2 bound ratio.

How did the Kd (IFN-gamma; 205 mM NaCl, 25 C) turn out when “TCGGGTCATTTANTAATGTAGGTATGGGCTAGGCNGCTAGTGGAT [IFd1-DsADs-45]” was run?
The Kd was 127 nM.

“GTAAACTGCGTCCGAAGGGGCNTGCAGTGAACCCGAATGGGTCCG [VGd1-DsA-45]” was tested. Which Kd ([1]; Ds at n, 25 C) did it give?
Its Kd is 0.094 nM.

For “ATCAGTCCACTCCTTCTGTCATNGGGCAGGCGCNTTTGGTGTAGNGTTTATCTTGG [IF07aDs-57]”, which binding signal (IFN-gamma) is on record?
The binding signal was 0.07 bound ratio.

“GTCCGAAGGGGCNTGCAGTGANCCCGAATGGGTCCG [VGd1-2Ds-36]” was tested. Which Kd ([1]; Ds at n, Bound 0.02, 25 C) did it give?
Its Kd is 4.6 nM.

With “TGTCTAAGTANGGTGGGATTGGCGGGGNTGTCGGA [Ds-09-1-DsADs]” as the sequence, how does the Kd ([1]; Ds at n, retention 33%) read?
Its Kd is over 100 nM.

How did the Kd (IFN-gamma; 205 mM NaCl, 25 C) turn out when “TCGGGTCATTTAATAATGTAGGTNTGGGCTAGGCNGCTAGTGGAT [IFd1-A2Ds-45]” was run?
Its Kd is 20 nM.

“CGGTAAACTGCGTCCGAAGGGGCATGCAGTGAACCCGAATGGGTCCG [VGd1-2A-47]” was tested. Which Kd ([1]; 25 C) did it give?
Its Kd is 0.2 nM.

“TGTCTAAGTANGGTGGGNTTGGCGGGGNTGTCGGA [Ds-09-1-DsDsDs]” was tested. Which Kd ([1]; Ds at n, PBS + 0.05% NP-40, 25 C, retention 92%) did it give?
Its Kd is 4 nM.

Which Kd ([1]; Ds at n, 25 C) does the source give for “GTAAACTGCGTCCGAAGGGGCNTGCAGTGANCCCGAATGGG [VGd1-2Ds-41b]” here?
Its Kd is 0.06 nM.

Which binding signal ([1]; Ds at n) does the source give for “ATCAGTCCACATCGAGCGTGAGGTCCGAAAGGCGACTCTTNTAACATCAAGTAATG [VG02aDs-57]” here?
Its binding signal is 0.15 bound ratio.

For “ACTGCGTCCGAAGGGGCNTGCAGTGANCCCGAATGGGTCCG [VGd1-2Ds-41]”, which Kd ([1]; Ds at n, 25 C) is on record?
Its Kd is 0.069 nM.

“CGGTAAACTGCGTCCGAAGGGGCNTGCAGTGANCCCGAATGGGTCCG [VGd1-2Ds-47]” was tested. Which Kd [1, 2] did it give?
Its Kd is 0.0046 nM.

With “TTTTTGTAAACTGCGTCCGAAGGGGCNTGCAGTGANCCCGAATGGGTCCG [VGd1-2Ds-50]” as the sequence, how does the Kd ([1]; Ds at n, 25 C) read?
Its Kd is 0.017 nM.

How did the Kd ([1]; Ds at n, retention 90%) turn out when “TGTCTAAGTANTGTGGGNTTGGAGGGGNTGTCGGA [Ds-09-1-mDsDsDs]” was run?
The Kd was 50 nM.

Which Kd ([1]; Ds at n, printed as uM, evidently pM, 25 C) does the source give for “TCAGTCCACGGTAAACTGAGTCCGAAGGGGCNTGCAGTGANCCCGAATGGGTCCGG [VG20Ds-57]” here?
Its Kd is 0.0059 nM.

“TGTCTAAGTAAGGTGGGNTTGGCGGGGNTGTCGGA [Ds-09-1-ADsDs]” was tested. Which Kd ([1]; Ds at n, PBS + 0.05% NP-40, 25 C, retention 94%) did it give?
The Kd was 1 nM.

“TGTCTAAGTANGGTGGGNTTGGCGGGGATGTCGGA [Ds-09-1-DsDsA]” was tested. Which Kd ([1]; Ds at n, retention 32%) did it give?
The Kd was over 100 nM.

Which Kd ([1]; Ds at n, 25 C) does the source give for “GTAAACTGCGTCCGAAGGGGCATGCAGTGANCCCGAATGGGTCCG [VGd1-ADs-45]” here?
The Kd was 0.037 nM.

For “GTAAACTGAGTCCGAAGGGGCNTGCAGTGANCCCGAATGGGTCCG [VG20Ds-45]”, which Kd ([1]; Ds at n, 25 C) is on record?
Its Kd is 0.022 nM.

How did the Kd ([1]; retention 28%) turn out when “TGTCTAAGTAAGGTGGGATTGGCGGGGATGTCGGA [Ds-09-1-AAA]” was run?
Its Kd is over 100 nM.

“GTAAACTGCGTCCGAAGGGGCNTGCAGTGANCCCGA [VGd1-2Ds-36b]” was tested. Which Kd ([1]; Ds at n, 25 C) did it give?
The Kd was 0.017 nM.

With “ATCAGTCCACGAGATGGATGGTAGTGGCCGNACGGGGGGGNTGGAGANGCTGGCTG [VG08Ds-57]” as the sequence, how does the binding signal ([1]; Ds at n) read?
Its binding signal is 0.21 bound ratio.

Which Kd [1, 2] does the source give for “CCGGTAAACTGCGTCCGAAGGGGCNTGCAGTGANCCCGAATGGGTCCGG [VGd1-2Ds-49]” here?
The Kd was 0.0046 nM.

With “ATCAGTCCACTAATCAGGAAGANGATAGGGTTTGTCTTNTGTTGCCACGCTGGGAG [IF04Ds-57]” as the sequence, how does the binding signal (IFN-gamma) read?
Its binding signal is 0.1 bound ratio.

Which Kd ([1]; Ds at n, 25 C) does the source give for “GTAAACTGCGTCCGAAGGGGCNTGCAGTGANCCCGAATGGGTCCG [VGd1-2Ds-45]” here?
Its Kd is 0.016 nM.

Which Kd (IFN-gamma; 205 mM NaCl, 25 C) does the source give for “TCGGGTCATTTANTAATGTAGGTNTGGGCTAGGCNGCTAGTGGAT [IFd1-3Ds-45]” here?
Its Kd is 15 nM.

“ATCAGTCCACCTATGTGGGTTGGNTGGGGTGTATGTTNGTAGGGCTANGGAGGTGG [IF11Ds-57]” was tested. Which binding signal (IFN-gamma) did it give?
The binding signal was 0.66 bound ratio.

How did the Kd (IFN-gamma; 205 mM NaCl, 25 C) turn out when “TCGGGTCGTTTANTAATGTAGGTNTGGGCTAGGCNGCTAGTGGAT [IF07bDs-45]” was run?
Its Kd is 20 nM.

“ATCAGTCCACTCGGGTCGTTTANTAATGTAGGTNTGGGCTAGGCNGCTAGTGGATG [IF07bDs-57]” was tested. Which Kd (IFN-gamma; Bound 0.72 (Table 13), 25 C) did it give?
The Kd was 2 nM.
